Target: CEA (Carcinoembryonic Antigen) (UniProt P06731)
Experiment: competition ELISA on CEA-coated plates; competitor of murine MAK BW 431/26 (5 ng/ml)

UniProt P06731, sequence (P06731 35-685 limits assumed): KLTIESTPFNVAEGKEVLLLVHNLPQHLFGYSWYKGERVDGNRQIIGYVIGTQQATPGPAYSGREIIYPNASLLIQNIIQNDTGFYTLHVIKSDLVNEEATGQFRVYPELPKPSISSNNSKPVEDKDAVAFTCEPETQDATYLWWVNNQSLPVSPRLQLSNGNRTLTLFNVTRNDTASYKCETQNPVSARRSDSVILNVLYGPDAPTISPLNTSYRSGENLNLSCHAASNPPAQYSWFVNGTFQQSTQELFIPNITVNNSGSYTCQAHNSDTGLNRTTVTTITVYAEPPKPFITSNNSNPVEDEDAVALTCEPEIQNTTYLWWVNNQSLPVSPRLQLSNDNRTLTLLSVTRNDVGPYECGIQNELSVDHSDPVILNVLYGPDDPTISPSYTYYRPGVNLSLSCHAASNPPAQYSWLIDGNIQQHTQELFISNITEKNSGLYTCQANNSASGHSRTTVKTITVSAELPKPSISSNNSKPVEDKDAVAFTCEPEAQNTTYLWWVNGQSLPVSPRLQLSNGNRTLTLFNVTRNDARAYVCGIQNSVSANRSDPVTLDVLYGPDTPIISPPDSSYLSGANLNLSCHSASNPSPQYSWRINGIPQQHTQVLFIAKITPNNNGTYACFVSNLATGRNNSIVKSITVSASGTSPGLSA

- molar excess of competitor for 50 % inhibition: 200 molar excess
Substance: humanized MAK BW 431/26 (antibody)
